Source: patent US6635450 (FRED HUTCHINSON CANCER RESEARCH CENTER, dated 2003)

Molecular target: Cdk2 alone (baculoviral HA-tagged Cdk2 immunoadsorbed to sepharose beads) (UniProt P24941 1-298)
Test: depletion of the Cdk2 inhibitor from Mv1Lu cell extracts on Cdk2 sepharose beads, read by cyclin E-associated H1 kinase activity
Procedure: Cyclin E-Cdk2 sepharose was prepared by mixing 1.2 µl of Sf9 cell lysate containing Hemagglutinin tagged Cdk2 (Cdk2 -HA) with 12 µl lysate containing cyclin E in buffer A (30 mM HEPES-KCH pH 7.5, 7.5 mM MgCl_2, 1 mM DTT) containing 10 mM ATP and incubated at room temperature for 30 minutes to allow complete formation. The assembly reaction was then adjusted to 250 mM NaCl and 0.5% NP40. The Cdk2-HA containing complexes were immunoprecipitated with the 12CA5 monoclonal antibody (BABCO) and collected on protein A-sepharose. Cdk2 sepharose was prepared in an identical manner except cyclin E was omitted. Immunoprecipitates were washed twice with NP40 RIPA buffer ([…], 250 mM NaCl, 10 mM EDTA, 20 mM Tris-HCl pH 7.4) and four times with buffer A. The matrix was divided into 4 aliquots and incubated with 100 µg of cell extract in buffer A containing 3 mM ATP, 20 µg/ml creatine phosphokinase, 40 mM phospho-creatine for 45 minutes at 37° C. After incubation the supernatant was collected and assayed for Cdk2 activation by addition of recombinant cyclin E as described below. A critical parameter in the execution of this experiment is to ensure that no cyclin, Cdk or complex leaks from the beads into the cell extract. This is unpredictable and must be checked by immunoblotting each time the experiment is performed.

B1: p27 protein, the 27 kD cyclin E-Cdk2 binding protein of Mv1Lu mink epithelial cells (endogenous) (other)
chain: MSNVRVSNGSPSLERMDARQAEYPKPSACRNLFGPVNHEELTRDLEKHRRDMEEASQRKWNFDFQNHKPLEGKYEWQEVEKGSLPEFYYRPPRPPKGACKVPAQESQDVSGTRQAVPLMGSQANSEDTHLVDQKTDTADNQAGLAEQCTGIRKRPATDDSSPQNKRANRTEENVSDGS
notes: also called p27^Kip1; Kip1
B1: no binding.
